The record followed here is patent US20240383982A1 (Genmab, published 2024).

Assay [1] has as its target T1, B7H3-IgV/B7H4-IgC.
T1 construct: also called chimeric molecule with the IgV domain of B7H3 and the IgC domain of B7H4
T1 full-length chimeric protein on cells: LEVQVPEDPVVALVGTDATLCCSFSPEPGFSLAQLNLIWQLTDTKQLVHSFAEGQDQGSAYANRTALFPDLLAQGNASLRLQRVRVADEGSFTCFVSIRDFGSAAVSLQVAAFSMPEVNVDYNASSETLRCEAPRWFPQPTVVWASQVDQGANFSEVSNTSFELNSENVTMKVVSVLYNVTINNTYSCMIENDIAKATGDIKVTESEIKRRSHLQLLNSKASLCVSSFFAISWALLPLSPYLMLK
The assay is described as follows: flow cytometry, HEK cells transiently transfected with B7H3-IgV/B7H4-IgC, PE anti-human IgG F(ab')2 [panel B7H3-IgV/B7H4-IgC].
Description: After washing twice in FACS buffer, cells were incubated with secondary antibody at 4° C. for 30 min. […] Next, cells were washed twice in FACS buffer, re-suspended in 20 μL FACS buffer and analyzed on an iQue Screener (Intellicyt Corporation, USA).
Further experiments were conducted to study the B7H4 domain specificity of the B7H4 antibodies in more detail, by analysis of full dose-response curves.

Assay [2] addresses T2, pig (Sus scrofa) B7H4, full length, on HEK-293F cells (pig, UniProt Q7Z7D3 26-282 (human entry)).
T2 construct: Uniprot F1SAY4; also called pig B7H4
T2 chain: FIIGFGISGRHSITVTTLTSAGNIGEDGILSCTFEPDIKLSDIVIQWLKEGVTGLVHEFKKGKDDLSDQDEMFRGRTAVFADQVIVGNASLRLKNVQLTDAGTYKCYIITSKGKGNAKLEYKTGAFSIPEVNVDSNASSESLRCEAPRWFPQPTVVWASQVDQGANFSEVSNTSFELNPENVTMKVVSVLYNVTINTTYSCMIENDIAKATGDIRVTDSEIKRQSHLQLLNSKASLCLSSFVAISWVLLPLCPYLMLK
The assay is described as follows: flow cytometry, HEK-293F cells transiently transfected with pig B7H4 [panel Pig B7H4]. As to the method: (§1) Cells (3×10⁴ cells/well) were incubated in polystyrene 96-well round-bottom plates (Greiner bio-one, cat. no. 650180) with serial dilutions of antibodies (ranging from 0.000458 to 30 μg/mL in 4-fold dilution steps) in 100 μL PBS/0.1% BSA/0.02% azide (staining buffer) at 4° C. for 30 min. Experiments were performed in technical duplicate. After washing twice in staining buffer, cells were incubated in 50 μL secondary antibody at 4° C. for 30 min. As a secondary antibody, R-Phycoerythrin (PE)-conjugated goat-anti-human IgG F(ab′)₂ (1:500 in FACS buffer; Jackson ImmunoResearch Laboratories, Inc., West Grove, PA, cat. no. 109-116-098), was used. Cells were washed twice in staining buffer, re-suspended in 30 μL FACS buffer containing Topro-3 (1:10,000 dilution) and analyzed on an iQue Screener (Intellicyt Corporation, USA). Binding curves were analyzed using non-linear regression (sigmoidal dose-response with variable slope) using GraphPad Prism V7.02 software (GraphPad Software, San Diego, CA, USA).
For orientation: In flow cytometry, cells or beads pass a laser one at a time.

Assay [3] deals with T3, human B7H4, full length, on cells (human, UniProt Q7Z7D3 25-282).
T3 construct: Uniprot Q7Z7D3; Used for transfected HEK cells and for the B7H4-expressing human tumor cell lines (endogenous B7H4); also called VTCN1
T3 sequence: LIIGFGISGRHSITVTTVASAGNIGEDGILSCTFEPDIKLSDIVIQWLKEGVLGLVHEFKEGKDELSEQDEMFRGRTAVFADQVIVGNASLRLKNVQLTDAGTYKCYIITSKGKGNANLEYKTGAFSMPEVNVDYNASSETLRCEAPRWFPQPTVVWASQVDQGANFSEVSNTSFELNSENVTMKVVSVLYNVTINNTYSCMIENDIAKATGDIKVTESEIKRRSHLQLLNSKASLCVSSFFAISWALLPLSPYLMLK
The assay is described as follows: flow cytometry on HCC1954 tumor cells [panel HCC1954 cells]. The method, then: as §1
Binding was analyzed by flow cytometry as described above.

The target of assay [4] is T4, human recombinant His tagged B7H4 protein (Sino Biological cat. no. 10738-H08H) (human, UniProt Q7Z7D3 29-258).
T4 construct: Bought protein; theoretical mass 26.8 kDa; also called human B7H4; human B7H4 extracellular domain
T4 sequence: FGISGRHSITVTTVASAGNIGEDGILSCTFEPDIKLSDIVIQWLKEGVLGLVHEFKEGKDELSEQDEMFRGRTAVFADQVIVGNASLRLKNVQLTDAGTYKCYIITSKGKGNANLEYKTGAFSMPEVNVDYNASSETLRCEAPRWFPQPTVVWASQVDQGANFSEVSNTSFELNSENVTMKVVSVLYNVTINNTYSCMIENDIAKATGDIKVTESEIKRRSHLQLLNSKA
Description: BLI (Octet HTX); antibody on anti-human IgG Fc capture sensor, human B7H4 ECD-His in solution; 2nd experiment (average of n = 3). The method, then:
Target binding affinity of B7H4 antibodies was determined by label-free biolayer interferometry (BLI) on an Octet HTX instrument (FortéBio). Experiments were carried out while shaking at 1,000 RPM at 30° C. […] Anti-Human IgG Fc Capture (AHC) biosensors (FortéBio, cat. no. 18-5060) were pre-conditioned by exposure to 10 mM glycine (Sigma-Aldrich, cat. no. 15527) buffer pH 1.7 for 5 s, followed by neutralization in Sample Diluent (FortéBio, cat. no. 18-1048) for 5 s; both steps were repeated 2 times. Next, AHC sensors were loaded with antibody (1 μg/mL in Sample diluent) for 600 s. […] The theoretical molecular mass of human B7H4 and mouse B7H4 (as ECD-His tagged molecules) based on their amino acid sequences (26.8 kDa and 26.6 kDa respectively) were used for calculations. For each antibody a reference sensor was used, which was incubated with Sample Diluent instead of antigen. AHC sensors were regenerated by exposure to 10 mM glycine buffer pH 1.7 for 5 s, followed by neutralization in Sample Diluent for 5 s; both steps were repeated twice. Subsequently sensors were loaded again with antibody for the next cycle of kinetics measurements.
Data were acquired using Data Acquisition Software v9.0.0.49d (FortéBio) and analyzed with Data Analysis Software v9.0.0.12 (FortéBio). Data traces were corrected per antibody by subtraction of the reference sensor. The Y-axis was aligned to the last 10 s of the baseline, Interstep Correction alignment to dissociation and Savitzky-Golay filtering were applied. Data traces with a response<0.05 nm were excluded from analysis. The data was fitted with the 1:1 Global Full fit model using a window of interest for the association and dissociation times set at 300 s and 200 s respectively.
Background: BLI is a label-free optical method that tracks binding on a fibre tip over time.

B1: bsIgG1-huCD3-H101G-FEALxB7H4-C1-N52S-FEAR (bispecific antibody)
heavy 1: not shown
light 1: not shown
heavy 2: QVQLQQWGAGLLKPSETLSLTCAVYGGSFSGYYWSWIRQPPGKGLEWIGEISHSGSTNYNPSLKSRVTISIDTSKNQFSLKLTSVTAADTAVFYCARGLFNWNFDSWGQGTLVTVSSASTKGPSVFPLAPSSKSTSGGTAALGCLVKDYFPEPVTVSWNSGALTSGVHTFPAVLQSSGLYSLSSVVTVPSSSLGTQTYICNVNHKPSNTKVDKRVEPKSCDKTHTCPPCPAPEFEGGPSVFLFPPKPKDTLMISRTPEVTCVVVAVSHEDPEVKFNWYVDGVEVHNAKTKPREEQYNSTYRVVSVLTVLHQDWLNGKEYKCKVSNKALPAPIEKTISKAKGQPREPQVYTLPPSREEMTKNQVSLTCLVKGFYPSDIAVEWESNGQPENNYKTTPPVLDSDGSFFLYSRLTVDKSRWQQGNVFSCSVMHEALHNHYTQKSLSLSPGK
light 2: DIQMTQSPSSLSASVGDRVTITCRASQGIRNDLGWYQQKPGKAPKRLIYGASSLQSGVPSRFSGSGSGTEFTLTISSLQPEDFATYYCLQHNSYPRTFGQGTTVEIKRTVAAPSVFIFPPSDEQLKSGTASVVCLLNNFYPREAKVQWKVDNALQSGNSQESVTEQDSKDSTYSLSSTLTLSKADYEKHKVYACEVTHQGLSSPVTKSFNRGEC
notes: also called bslgG1-huCD3-H101G-FEALxB7H4-C1-N52S-FEAR; BslgG1-huCD3-H101G-FEALxB7H4-C1-N52S-FEAR
The term EC50 (read off the curve) denotes the midpoint of the concentration-response curve. High values mean a less potent agent, low ones a more potent agent. As for B1, the binding result was “binds” in assay [1] and “no binding (tested: 30 µg/ml)” in assay [2]. Also, the “EC50 (read off the curve)” value in assay [3] is approximately 3 µg/mL.

B2: IgG1-B7H4-C1-N52S-FEAR (antibody, V domains shown)
VH: QVQLQQWGAGLLKPSETLSLTCAVYGGSFSGYYWSWIRQPPGKGLEWIGEISHSGSTNYNPSLKSRVTISIDTSKNQFSLKLTSVTAADTAVFYCARGLFNWNFDSWGQGTLVTVSS
VL: DIQMTQSPSSLSASVGDRVTITCRASQGIRNDLGWYQQKPGKAPKRLIYGASSLQSGVPSRFSGSGSGTEFTLTISSLQPEDFATYYCLQHNSYPRTFGQGTTVEIKR
notes: Full length human IgG1 with L234F, L235E, D265A, K409R (FEAR) heavy chain constant region and kappa light chain; bivalent, monospecific; also called IgG1-B7H4-C1-052S-FEAR
The Kd is a measure of binding affinity in units of concentration. As usually defined, the koff is the rate constant with which the complex falls apart. What is called kon is the second-order rate constant of association. As for B2, in assay [4], the dissociation constant (Kd) came to 57 nM, the koff came to 0.0047 s⁻¹ and the on-rate (kon) was 84000 M⁻¹ s⁻¹.
